Data: patent US20100261620A1 (published 2010)

Target: IL-13 (Homo sapiens (Human), UniProt P35225 35-146, limits assumed)
Experiment: Biacore

Chain of IL-13 (P35225 35-146 limits assumed): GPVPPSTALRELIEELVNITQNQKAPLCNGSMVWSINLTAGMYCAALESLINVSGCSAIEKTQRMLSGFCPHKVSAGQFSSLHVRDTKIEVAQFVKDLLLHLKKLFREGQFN

Binder | Kd | koff | kon
M453 (antibody, V domains shown, anti-IL-13, human IgG1) VH: QVTLKESGPVLVKPTETLTLTCTVSGFSLSTYGMGVGWIRQPPGKALEWLAHIWWDDVKRYNPALKSRLTISKDTSKSQVVLTMTNMDPVDTATYYCARMGSDYDVWFDYWGQGTLVTVSS VL: EIVLTQSPATLSLSPGERATLSCRASKSISKYLAWYQQKPGQAPRLLIYSGSTLQSGIPARFSGSGSGTDFTLTISSLEPEDFAVYYCQQHDWGPYTFGQGTKLEIK | 44 pM | 4.7e-05 s⁻¹ | 1.06e+06 M⁻¹ s⁻¹
M445 (antibody, V domains shown, anti-IL-13, human IgG1) VH: QVTLKESGPVLVKPTETLTLTCTVSGFSLSTYGMGVGWIRQPPGKALEWLAHIWWDDVKRYNPALKSRLTISKDTSKSQVVLTMTNMDPVDTATYYCARMGSDYDVWFDYWGQGTLVTVSS VL: EIVLTQSPATLSLSPGERATLSCRASKSISKYLAWYQQKPGQAPRLLIYSGSTLQSGIPARFSGSGSGTDFTLTISSLEPEDFAVYYCQQHLLGPYTFGQGTKLEIK | 262 pM | 0.000291 s⁻¹ | 1.11e+06 M⁻¹ s⁻¹
M446 (antibody, V domains shown, anti-IL-13, human IgG1) VH: QVTLKESGPVLVKPTETLTLTCTVSGFSLSTYGMGVGWIRQPPGKALEWLAHIWWDDVKRYNPALKSRLTISKDTSKSQVVLTMTNMDPVDTATYYCARMGSDYDVWFDYWGQGTLVTVSS VL: EIVLTQSPATLSLSPGERATLSCRASKSISKYLAWYQQKPGQAPRLLIYSGSTLQSGIPARFSGSGSGTDFTLTISSLEPEDFAVYYCQQHVGGPYTFGQGTKLEIK | 345 pM | 0.000465 s⁻¹ | 1.35e+06 M⁻¹ s⁻¹
M452 (antibody, V domains shown, anti-IL-13, human IgG1) VH: QVTLKESGPVLVKPTETLTLTCTVSGFSLSTYGMGVGWIRQPPGKALEWLAHIWWDDVKRYNPALKSRLTISKDTSKSQVVLTMTNMDPVDTATYYCARMGSDYDVWFDYWGQGTLVTVSS VL: EIVLTQSPATLSLSPGERATLSCRASKSISKYLAWYQQKPGQAPRLLIYSGSTLQSGIPARFSGSGSGTDFTLTISSLEPEDFAVYYCQQHLNGPYTFGQGTKLEIK | 233 pM | 0.00027 s⁻¹ | 1.16e+06 M⁻¹ s⁻¹
M462 (antibody, V domains shown, anti-IL-13, human IgG1) VH: QVTLKESGPVLVKPTETLTLTCTVSGFSLSTYGMGVGWIRQPPGKALEWLAHIWWDDVKRYNPALKSRLTISKDTSKSQVVLTMTNMDPVDTATYYCARMGSDYDVWFDYWGQGTLVTVSS VL: EIVLTQSPATLSLSPGERATLSCRASKSISKYLAWYQQKPGQAPRLLIYSGSTLQSGIPARFSGSGSGTDFTLTISSLEPEDFAVYYCQQHNFGPYTFGQGTKLEIK | 366 pM | 0.000417 s⁻¹ | 1.14e+06 M⁻¹ s⁻¹
M461 (antibody, V domains shown, anti-IL-13, human IgG1) VH: QVTLKESGPVLVKPTETLTLTCTVSGFSLSTYGMGVGWIRQPPGKALEWLAHIWWDDVKRYNPALKSRLTISKDTSKSQVVLTMTNMDPVDTATYYCARMGSDYDVWFDYWGQGTLVTVSS VL: EIVLTQSPATLSLSPGERATLSCRASKSISKYLAWYQQKPGQAPRLLIYSGSTLQSGIPARFSGSGSGTDFTLTISSLEPEDFAVYYCQQHSIGPYTFGQGTKLEIK | 193 pM | 0.000257 s⁻¹ | 1.33e+06 M⁻¹ s⁻¹
H2L6 HFS variant (antibody, V domains shown, IgG1; also called IL13-62) VH: QVTLKESGPVLVKPTETLTLTCTVSGFSLSTYGMGVGWIRQPPGKALEWLAHIWWDDVKRYNPALKSRLTISKDTSKSQVVLTMTNMDPVDTATYYCARMGSDYDVWFDYWGQGTLVTVSS VL: EIVLTQSPATLSLSPGERATLSCRASKSISKYLAWYQQKPGQAPRLLIYSGSTLQSGIPARFSGSGSGTDFTLTISSLEPEDFAVYYCQQHNEYPYTFGQGTKLEIK | 754 pM | 0.000944 s⁻¹ | 1.25e+06 M⁻¹ s⁻¹
M455 (antibody, V domains shown, anti-IL-13, human IgG1) VH: QVTLKESGPVLVKPTETLTLTCTVSGFSLSTYGMGVGWIRQPPGKALEWLAHIWWDDVKRYNPALKSRLTISKDTSKSQVVLTMTNMDPVDTATYYCARMGSDYDVWFDYWGQGTLVTVSS VL: EIVLTQSPATLSLSPGERATLSCRASKSISKYLAWYQQKPGQAPRLLIYSGSTLQSGIPARFSGSGSGTDFTLTISSLEPEDFAVYYCQQHNEAPYTFGQGTKLEIK | 186 pM | 0.000303 s⁻¹ | 1.63e+06 M⁻¹ s⁻¹
M457 (antibody, V domains shown, anti-IL-13, human IgG1) VH: QVTLKESGPVLVKPTETLTLTCTVSGFSLSTYGMGVGWIRQPPGKALEWLAHIWWDDVKRYNPALKSRLTISKDTSKSQVVLTMTNMDPVDTATYYCARMGSDYDVWFDYWGQGTLVTVSS VL: EIVLTQSPATLSLSPGERATLSCRASKSISKYLAWYQQKPGQAPRLLIYSGSTLQSGIPARFSGSGSGTDFTLTISSLEPEDFAVYYCQQHDYAPYTFGQGTKLEIK | 193 pM | 0.000214 s⁻¹ | 1.11e+06 M⁻¹ s⁻¹
M459 (antibody, V domains shown, anti-IL-13, human IgG1) VH: QVTLKESGPVLVKPTETLTLTCTVSGFSLSTYGMGVGWIRQPPGKALEWLAHIWWDDVKRYNPALKSRLTISKDTSKSQVVLTMTNMDPVDTATYYCARMGSDYDVWFDYWGQGTLVTVSS VL: EIVLTQSPATLSLSPGERATLSCRASKSISKYLAWYQQKPGQAPRLLIYSGSTLQSGIPARFSGSGSGTDFTLTISSLEPEDFAVYYCQQPLEAPYTFGQGTKLEIK | 356 pM | 0.000449 s⁻¹ | 1.26e+06 M⁻¹ s⁻¹

Continued by falling Kd, values first:

Kd | koff | kon | Binder
184 pM | 0.00022 s⁻¹ | 1.2e+06 M⁻¹ s⁻¹ | M444 (antibody, V domains shown, anti-IL-13, human IgG1) VH: QVTLKESGPVLVKPTETLTLTCTVSGFSLSTYGMGVGWIRQPPGKALEWLAHIWWDDVKRYNPALKSRLTISKDTSKSQVVLTMTNMDPVDTATYYCARMGSDYDVWFDYWGQGTLVTVSS VL: EIVLTQSPATLSLSPGERATLSCRASKSISKYLAWYQQKPGQAPRLLIYSGSTLQSGIPARFSGSGSGTDFTLTISSLEPEDFAVYYCQQHVWGPYTFGQGTKLEIK
177 pM | 0.000333 s⁻¹ | 1.88e+06 M⁻¹ s⁻¹ | M451 (antibody, V domains shown, anti-IL-13, human IgG1) VH: QVTLKESGPVLVKPTETLTLTCTVSGFSLSTYGMGVGWIRQPPGKALEWLAHIWWDDVKRYNPALKSRLTISKDTSKSQVVLTMTNMDPVDTATYYCARMGSDYDVWFDYWGQGTLVTVSS VL: EIVLTQSPATLSLSPGERATLSCRASKSISKYLAWYQQKPGQAPRLLIYSGSTLQSGIPARFSGSGSGTDFTLTISSLEPEDFAVYYCQQPLDVPYTFGQGTKLEIK
148 pM | 0.000182 s⁻¹ | 1.24e+06 M⁻¹ s⁻¹ | M456 (antibody, V domains shown, anti-IL-13, human IgG1) VH: QVTLKESGPVLVKPTETLTLTCTVSGFSLSTYGMGVGWIRQPPGKALEWLAHIWWDDVKRYNPALKSRLTISKDTSKSQVVLTMTNMDPVDTATYYCARMGSDYDVWFDYWGQGTLVTVSS VL: EIVLTQSPATLSLSPGERATLSCRASKSISKYLAWYQQKPGQAPRLLIYSGSTLQSGIPARFSGSGSGTDFTLTISSLEPEDFAVYYCQQHSYGPYTFGQGTKLEIK
92 pM | 0.000127 s⁻¹ | 1.39e+06 M⁻¹ s⁻¹ | M448 (antibody, V domains shown, anti-IL-13, human IgG1) VH: QVTLKESGPVLVKPTETLTLTCTVSGFSLSTYGMGVGWIRQPPGKALEWLAHIWWDDVKRYNPALKSRLTISKDTSKSQVVLTMTNMDPVDTATYYCARMGSDYDVWFDYWGQGTLVTVSS VL: EIVLTQSPATLSLSPGERATLSCRASKSISKYLAWYQQKPGQAPRLLIYSGSTLQSGIPARFSGSGSGTDFTLTISSLEPEDFAVYYCQQHSHGPYTFGQGTKLEIK
89 pM | 9e-05 s⁻¹ | 1.02e+06 M⁻¹ s⁻¹ | M449 (antibody, V domains shown, anti-IL-13, human IgG1) VH: QVTLKESGPVLVKPTETLTLTCTVSGFSLSTYGMGVGWIRQPPGKALEWLAHIWWDDVKRYNPALKSRLTISKDTSKSQVVLTMTNMDPVDTATYYCARMGSDYDVWFDYWGQGTLVTVSS VL: EIVLTQSPATLSLSPGERATLSCRASKSISKYLAWYQQKPGQAPRLLIYSGSTLQSGIPARFSGSGSGTDFTLTISSLEPEDFAVYYCQQHESGPYTFGQGTKLEIK
88 pM | 7.8e-05 s⁻¹ | 880000 M⁻¹ s⁻¹ | M443 (antibody, V domains shown, anti-IL-13, human IgG1) VH: QVTLKESGPVLVKPTETLTLTCTVSGFSLSTYGMGVGWIRQPPGKALEWLAHIWWDDVKRYNPALKSRLTISKDTSKSQVVLTMTNMDPVDTATYYCARMGSDYDVWFDYWGQGTLVTVSS VL: EIVLTQSPATLSLSPGERATLSCRASKSISKYLAWYQQKPGQAPRLLIYSGSTLQSGIPARFSGSGSGTDFTLTISSLEPEDFAVYYCQQHSWGPYTFGQGTKLEIK
65 pM | 7.4e-05 s⁻¹ | 1.13e+06 M⁻¹ s⁻¹ | M454 (antibody, V domains shown, anti-IL-13, human IgG1) VH: QVTLKESGPVLVKPTETLTLTCTVSGFSLSTYGMGVGWIRQPPGKALEWLAHIWWDDVKRYNPALKSRLTISKDTSKSQVVLTMTNMDPVDTATYYCARMGSDYDVWFDYWGQGTLVTVSS VL: EIVLTQSPATLSLSPGERATLSCRASKSISKYLAWYQQKPGQAPRLLIYSGSTLQSGIPARFSGSGSGTDFTLTISSLEPEDFAVYYCQQQDYGPYTFGQGTKLEIK
63 pM | 0.000107 s⁻¹ | 1.71e+06 M⁻¹ s⁻¹ | M450 (antibody, V domains shown, anti-IL-13, human IgG1) VH: QVTLKESGPVLVKPTETLTLTCTVSGFSLSTYGMGVGWIRQPPGKALEWLAHIWWDDVKRYNPALKSRLTISKDTSKSQVVLTMTNMDPVDTATYYCARMGSDYDVWFDYWGQGTLVTVSS VL: EIVLTQSPATLSLSPGERATLSCRASKSISKYLAWYQQKPGQAPRLLIYSGSTLQSGIPARFSGSGSGTDFTLTISSLEPEDFAVYYCQQHDPGPYTFGQGTKLEIK
55 pM | 5.4e-05 s⁻¹ | 980000 M⁻¹ s⁻¹ | M447 (antibody, V domains shown, anti-IL-13, human IgG1) VH: QVTLKESGPVLVKPTETLTLTCTVSGFSLSTYGMGVGWIRQPPGKALEWLAHIWWDDVKRYNPALKSRLTISKDTSKSQVVLTMTNMDPVDTATYYCARMGSDYDVWFDYWGQGTLVTVSS VL: EIVLTQSPATLSLSPGERATLSCRASKSISKYLAWYQQKPGQAPRLLIYSGSTLQSGIPARFSGSGSGTDFTLTISSLEPEDFAVYYCQQQDIGPYTFGQGTKLEIK
37 pM | 6.3e-05 s⁻¹ | 1.7e+06 M⁻¹ s⁻¹ | M463 (antibody, V domains shown, anti-IL-13, human IgG1) VH: QVTLKESGPVLVKPTETLTLTCTVSGFSLSTYGMGVGWIRQPPGKALEWLAHIWWDDVKRYNPALKSRLTISKDTSKSQVVLTMTNMDPVDTATYYCARMGSDYDVWFDYWGQGTLVTVSS VL: EIVLTQSPATLSLSPGERATLSCRASKSISKYLAWYQQKPGQAPRLLIYSGSTLQSGIPARFSGSGSGTDFTLTISSLEPEDFAVYYCQQQDLGPYTFGQGTKLEIK
